Laboratory results from patent publication US20240000834A1, “RAS MUTANT EPITOPE PEPTIDE AND T CELL RECEPTOR RECOGNIZING RAS MUTANT” (SHANGHAI GENBASE BIOTECHNOLOGY CO., LTD., priority 2020, published 2024).
Numbering of substitutions follows the chain as printed.

B1: β48Y-V: B13.14.1 TCR Vβ point mutant (protein)
TCR alpha: AQSVAQPEDQVNVAEGNPLTVKCTYSVSGNPYLFWYVQYPNRGLQFLLKYITGDNLVKGSYGFEAEFNKSQTSFHLKKPSALVSDSALYFCAVRDGRGGGNKLTFGTGTQLKVEL
TCR beta: GITQSPKYLFRKEGQNVTLSCEQNLNHDAMYWYRQDPGQGLRLIYVSQIVNDFQKGDIAEGYSVSREKKESFPLTVTSAQKNPTAFYLCASSPGQRDNSPLHFGNGTRLTVT
B2: β51I-D: B13.14.1 TCR Vβ point mutant (protein)
TCR alpha: B1 TCR alpha
TCR beta: B1 TCR beta with V46Y, I49D
B3: β51I-M: B13.14.1 TCR Vβ point mutant (protein)
TCR alpha: B1 TCR alpha
TCR beta: B1 TCR beta with V46Y, I49M
B4: β51I-P: B13.14.1 TCR Vβ point mutant (protein)
TCR alpha: B1 TCR alpha
TCR beta: B1 TCR beta with V46Y, I49P
B5: α32Y-P: B13.14.1 TCR Vα point mutant (protein)
TCR alpha: B1 TCR alpha with Y32P
TCR beta: B1 TCR beta with V46Y
B6: α32Y-L: B13.14.1 TCR Vα point mutant (protein)
TCR alpha: B1 TCR alpha with Y32L
TCR beta: B1 TCR beta with V46Y
B7: α32Y-T: B13.14.1 TCR Vα point mutant (protein)
TCR alpha: B1 TCR alpha with Y32T
TCR beta: B1 TCR beta with V46Y
B8: β51I-Q: B13.14.1 TCR Vβ point mutant (protein)
TCR alpha: B1 TCR alpha
TCR beta: B1 TCR beta with V46Y, I49Q
B9: β48Y-W: B13.14.1 TCR Vβ point mutant (protein)
TCR alpha: B1 TCR alpha
TCR beta: B1 TCR beta with V46W
B10: α32Y-S: B13.14.1 TCR Vα point mutant (protein)
TCR alpha: B1 TCR alpha with Y32S
TCR beta: B1 TCR beta with V46Y
B11: β51I-T: B13.14.1 TCR Vβ point mutant (protein)
TCR alpha: B1 TCR alpha
TCR beta: B1 TCR beta with V46Y, I49T
B12: α32Y-F: B13.14.1 TCR Vα point mutant (protein)
TCR alpha: B1 TCR alpha with Y32F
TCR beta: B1 TCR beta with V46Y
B13: β51I-L: B13.14.1 TCR Vβ point mutant (protein)
TCR alpha: B1 TCR alpha
TCR beta: B1 TCR beta with V46Y, I49L
B14: β51I-F: B13.14.1 TCR Vβ point mutant (protein)
TCR alpha: B1 TCR alpha
TCR beta: B1 TCR beta with V46Y, I49F
B15: α32Y-R: B13.14.1 TCR Vα point mutant (protein)
TCR alpha: B1 TCR alpha with Y32R
TCR beta: B1 TCR beta with V46Y
B16: β51I-V: B13.14.1 TCR Vβ point mutant (protein)
TCR alpha: B1 TCR alpha
TCR beta: B1 TCR beta with V46Y, I49V
B17: α32Y-G: B13.14.1 TCR Vα point mutant (protein)
TCR alpha: B1 TCR alpha with Y32G
TCR beta: B1 TCR beta with V46Y
B18: α32Y-H: B13.14.1 TCR Vα point mutant (protein)
TCR alpha: B1 TCR alpha with Y32H
TCR beta: B1 TCR beta with V46Y
B19: α32Y-E: B13.14.1 TCR Vα point mutant (protein)
TCR alpha: B1 TCR alpha with Y32E
TCR beta: B1 TCR beta with V46Y
B20: β51I-G: B13.14.1 TCR Vβ point mutant (protein)
TCR alpha: B1 TCR alpha
TCR beta: B1 TCR beta with V46Y, I49G
B21: β51I-A: B13.14.1 TCR Vβ point mutant (protein)
TCR alpha: B1 TCR alpha
TCR beta: B1 TCR beta with V46Y, I49A
B22: β51I-E: B13.14.1 TCR Vβ point mutant (protein)
TCR alpha: B1 TCR alpha
TCR beta: B1 TCR beta with V46Y, I49E
B23: α32Y-A: B13.14.1 TCR Vα point mutant (protein)
TCR alpha: B1 TCR alpha with Y32A
TCR beta: B1 TCR beta with V46Y
B24: α32Y-M: B13.14.1 TCR Vα point mutant (protein)
TCR alpha: B1 TCR alpha with Y32M
TCR beta: B1 TCR beta with V46Y
B25: β51I-K: B13.14.1 TCR Vβ point mutant (protein)
TCR alpha: B1 TCR alpha
TCR beta: B1 TCR beta with V46Y, I49K
B26: α32Y-I: B13.14.1 TCR Vα point mutant (protein)
TCR alpha: B1 TCR alpha with Y32I
TCR beta: B1 TCR beta with V46Y
B27: α32Y-V: B13.14.1 TCR Vα point mutant (protein)
TCR alpha: B1 TCR alpha with Y32V
TCR beta: B1 TCR beta with V46Y
B28: β51I-Y: B13.14.1 TCR Vβ point mutant (protein)
TCR alpha: B1 TCR alpha
TCR beta: B1 TCR beta with V46Y, I49Y
B29: β51I-H: B13.14.1 TCR Vβ point mutant (protein)
TCR alpha: B1 TCR alpha
TCR beta: B1 TCR beta with V46Y, I49H
B30: β51I-W: B13.14.1 TCR Vβ point mutant (protein)
TCR alpha: B1 TCR alpha
TCR beta: B1 TCR beta with V46Y, I49W
B31: β51I-S: B13.14.1 TCR Vβ point mutant (protein)
TCR alpha: B1 TCR alpha
TCR beta: B1 TCR beta with V46Y, I49S
B32: β51I-R: B13.14.1 TCR Vβ point mutant (protein)
TCR alpha: B1 TCR alpha
TCR beta: B1 TCR beta with V46Y, I49R

target: T1, KRAS-G12V antigen (RAS G12V-T15 peptide) (Homo sapiens, UniProt P01116, G12V); test: TCR mutant screening in Jurkat-NFAT-Luc cells with antigen-loaded B13 LCL cells (ONE Glo Luciferase); assay type: cell-based; details: MHC-II binding region mutants; ratio to wild-type B13.14.1 TCR; 16-24 hours
T1 construct: endogenous in cells; host or cells: patient B13 autologous LCL cells (endogenous HLA-DP); the peptide is synthetic
Procedure: According to the table below, point mutations were performed on the Vα and Vβ of B13.14.1 TCR (including CDR3 region and […]), and a lentiviral vector shuttle plasmid encoding the TCR mutant was constructed, packaged with the standard lentiviral vector in 293T cells, and B13.14.1TCR mutant were subjected to function screening.
The TCR mutant (CDR3 region) lentiviral vector was transduced into Jurkat-NFAT-Luc cell line, and B13 LCL cells loaded with KRAS-G12V antigen (RAS G12V-T15 peptide, SEQ ID NO: 5) were used as antigen-presenting cells. 2×10^4 TCR-T and 2×10^4 antigen-loaded B13 LCL cells were co-cultured for 16-24 hours, and added with ONE Glo Luciferase to detect the expression of fluorescent signal, and the TCR Mut RLU/WT RLU (ratio of RLU signal value of TCR mutant to RLU signal value of wild-type B13.14.1 TCR) was calculated.
The TCR mutant (MHC-II binding region) lentiviral vector was transduced into the Jurkat-NFAT-Luc cell line, and B13 LCL cells loaded with KRAS-G12V antigen (RAS G12V-T15 peptide, SEQ ID NO: 5) were used as the antigen-presenting cells. 2×10^4 TCR-T and 2×10^4 antigen-loaded B13 LCL cells were co-cultured for 16-24 hours, the fluorescence signal expression was detected by adding ONE Glo Luciferase, and TCR Mut RLU/WT RLU (ratio of RLU signal value of TCR mutant to RLU signal value of wild-type B13.14.1TCR) was calculated.

TCR Mut RLU/WT RLU [%]	Molecule
63.15	B1
4.56	B2
26.84	B3
19.95	B4
3.98	B5
6.35	B6
3.77	B7
12.98	B8
32.62	B9
5.77	B10
88.58	B11
3.81	B12
25.46	B13
32.79	B14
5.60	B15
35.46	B16

TCR Mut RLU/WT RLU [%]	Molecule
4.03	B17
5.60	B18
4.59	B19
5.49	B20
27.57	B21
6.28	B22
4.68	B23
4.94	B24
3.82	B25
4.64	B26
4.71	B27
19.64	B28
34.95	B29
22.56	B30
21.00	B31
9.90	B32
